From patent US20240010735A1 (EISAI R AND D MANAGEMENT, published 2024) come the findings set out here.

In assay [1] the target is T1, human EphA4 extracellular region-SEAP-His protein (human, UniProt P54764 20-547).
T1 construct: also called human EphA4 extracellular region-SEAP-His 10; not shown: secretory alkaline phosphatase (SEAP); histidine tag
As to the kind of experiment: SPR, Biacore T200; EphA4 extracellular region-SEAP-His captured on anti-His chip, antibody as analyte, 1:1 model. Here is the method: The binding affinity of antibody A against mouse and human EphA4 was determined by surface plasmon resonance (SPR method) employing Biacore T200 (GE Healthcare). First, anti-His antibodies (GE Healthcare, 28-9950-56) were fixed to a sensor chip CM5. Fixation was carried out by amine coupling method employing N-hydroxysuccinimide (NHS) and N-ethyl-N′-(3-dimethylaminopropyl) carbodiimide hydrochloride salt (EDC), and ethanolamine was employed for blocking (the sensor chip and reagents for fixation are all from GE Healthcare). This was diluted with the fixation buffer (10 mM sodium acetate, pH 4.5) to 3.5 μg/mL, and fixed onto the sensor chip according to the protocol accompanying Biacore T200. Mouse or human EphA4 extracellular region-SEAP-His 10 was diluted with the running buffer HBS-EP (GE Healthcare, BR-1001-88), and the solution was sent and captured onto the flow cell for 120 seconds (about 10 RU of captured amount). Subsequently, antibody A serially diluted to a range of 100, 50, 25, 12.5, 6.3, 3.2, 1.6, 0 nM with HBS-EP was added to the sensor chip for 120 seconds, and the binding reaction curve at the time of addition (binding phase, 120 seconds) and after completing the addition (dissociation phase, 600 seconds) was sequentially observed. Upon completion of each observation, 4 M MgCl₂ (60 seconds, Wako Pure Chemicals) was added to regenerate the sensor chip. Fitting analysis by 1:1 binding model employing the software accompanying the system, BIA evaluation software, was carried out against the binding reaction curve obtained, and the binding affinity (KD=kd/ka) against mouse and human EphA4 was calculated.
The binding affinity of antibody B obtained in Example 1 against human EphA4 was determined by surface plasmon resonance (SPR method) employing Biacore T200 (GE Healthcare). First, anti-His antibodies (GE Healthcare, 28-9950-56) were fixed to a sensor chip CMS. […]
A general note: SPR reads the build-up and loss of mass on a sensor chip optically.

Assay [2] addresses T1, human EphA4 extracellular …. Nature of the assay: competition ELISA; captured human EphA4 extracellular region-SEAP-His, competitor biotinylated human EphrinB3-Fc chimera (2.3 nM).
For assay [3], the target named is T2, human EphA4 fibronectin type III domain 1-MBP-His protein (human, UniProt P54764 205-440).
T2 construct: also called fibronectin type III domain 1 (FN1); not shown: histidine tag
Nature of the assay: ELISA; domain-MBP-His protein captured by anti-6-His antibody. Here is the method:
(§1) Rabbit anti-6-His antibodies (Bethyl Laboratories) were coated onto the wells of a 96-well plate (Nunc). After incubating at 4° C. overnight, the wells were blocked at room temperature for 1 hour by 1% Block Ace (DS Pharma Biomedical). After washing twice with 0.02% Tween 20/PBS (Nacalai Tesque), human EphA4 extracellular region-MBP-His protein, human EphA4 ligand binding domain-MBP-His protein, human EphA4 fibronectin type III domain 1-NBP-His protein, and human EphA4 fibronectin type III domain 2-MBP-His protein (final concentration 10 nM) were seeded into the wells, and incubated at room temperature for 1 hour. After washing 3 times, antibody A (final concentration 10 nM) was supplemented to the wells, and incubated at room temperature for 1 hour. Horseradish peroxidase-labeled goat anti-mouse IgG Fcγ fragment antibody (Jackson ImmunoResearch Laboratories) was added, and incubated at room temperature for 1 hour. After washing 5 times, TMB solution (KPL) was added to the wells, and upon confirmation of modest coloring, an equal amount of quenching solution (2 N H₂SO₄, Wako Pure Chemicals) was added to the wells, and absorbance at 450 nm and 650 nm were read by a microplate reader (PerkinElmer).
as §1, with “domain 1-MBP-His” for “domain 1-NBP-His”, “antibody B” for “antibody A”, “peroxidase-labeled rabbit anti-human” for “peroxidase-labeled goat anti-mouse”, “IgG Fey” for “IgG Fcγ”, “hour.” for “hour. After washing 5 times, TMB solution (KPL) was added to the wells, and upon confirmation of modest coloring, an equal amount of quenching solution (2 N H₂SO₄, Wako Pure Chemicals) was added to the wells, and absorbance at 450 nm and 650 nm were read by a microplate reader (PerkinElmer).”
(In general: An ELISA detects its analyte on a solid surface through an enzyme-linked reagent.)

In assay [4] the target is T3, human EphA4 fibronectin type III domain 2-MBP-His protein (human, UniProt P54764 436-547).
T3 construct: also called fibronectin type III domain 2 (FN2); not shown: histidine tag
Described as above. The protocol:
as §1
as §1, with “domain 1-MBP-His” for “domain 1-NBP-His”, “antibody B” for “antibody A”, “peroxidase-labeled rabbit anti-human” for “peroxidase-labeled goat anti-mouse”, “IgG Fey” for “IgG Fcγ”, “hour.” for “hour. After washing 5 times, TMB solution (KPL) was added to the wells, and upon confirmation of modest coloring, an equal amount of quenching solution (2 N H₂SO₄, Wako Pure Chemicals) was added to the wells, and absorbance at 450 nm and 650 nm were read by a microplate reader (PerkinElmer).”

Assay [5] has as its target T4, mouse EphA4 extracellular region-Fc-His protein (mouse; human, UniProt Q03137 20-547).
T4 construct: Used as culture supernatant of transfected cells; not shown: Fc region of human IgG1; histidine tag
As to the kind of experiment: ELISA; Eph receptor extracellular region-Fc-His captured by anti-6-His antibody, antibody at 10 µg/mL. Here is the method:
For antibody B, the evaluation of the binding activity of mouse Eph receptor was carried out according to the following steps.
Rabbit anti-6-His antibodies (Bethyl Laboratories) were coated onto the wells of a 96-well plate (Nunc). After incubating at 4° C. overnight, the wells were blocked at room temperature for 1 hour by 1% Block Ace (DS Pharma Biomedical). After washing 3 times with 0.05% Tween 20/PBS (Thermo […]), each Eph receptor of mouse extracellular region-Fc-His protein (final concentration 1 nM) was seeded into each well, and incubated at room temperature for 1 hour. After washing 3 times, human IgG solution (100 μg/mL, Sigma) and antibody B (10 μg/mL) were supplemented to the wells, and incubated at room temperature for 1 hour. Horseradish peroxidase-labeled goat anti-human Kappa Light Chain antibody (IBL) was added, and incubated at room temperature for 1 hour. After washing 3 times, TMBZ (3,3′,5,5′-tetramethylbenzidine, Sigma) solution was added to the wells, and upon confirmation of modest coloring, an equal amount of quenching solution (1 N H₂SO₄, Wako Pure Chemicals) was added to the wells, and absorbance at 450 nm was read by a microplate reader (PerkinElmer).

T1 sequence (P54764 20-547): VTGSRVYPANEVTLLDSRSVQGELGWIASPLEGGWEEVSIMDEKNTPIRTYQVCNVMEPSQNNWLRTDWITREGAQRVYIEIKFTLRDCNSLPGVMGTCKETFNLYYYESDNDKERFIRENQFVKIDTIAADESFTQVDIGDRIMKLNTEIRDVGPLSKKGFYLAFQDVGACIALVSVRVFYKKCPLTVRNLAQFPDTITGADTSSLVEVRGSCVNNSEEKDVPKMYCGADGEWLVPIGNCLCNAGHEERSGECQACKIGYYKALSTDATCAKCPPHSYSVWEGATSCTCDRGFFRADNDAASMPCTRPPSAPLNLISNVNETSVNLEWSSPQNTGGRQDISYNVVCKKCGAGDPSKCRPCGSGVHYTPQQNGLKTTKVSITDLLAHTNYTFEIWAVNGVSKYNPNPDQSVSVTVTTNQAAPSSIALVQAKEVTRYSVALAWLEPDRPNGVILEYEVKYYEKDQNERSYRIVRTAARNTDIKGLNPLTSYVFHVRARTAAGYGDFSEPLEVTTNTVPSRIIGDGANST
T2 sequence (P54764 205-440 limits assumed): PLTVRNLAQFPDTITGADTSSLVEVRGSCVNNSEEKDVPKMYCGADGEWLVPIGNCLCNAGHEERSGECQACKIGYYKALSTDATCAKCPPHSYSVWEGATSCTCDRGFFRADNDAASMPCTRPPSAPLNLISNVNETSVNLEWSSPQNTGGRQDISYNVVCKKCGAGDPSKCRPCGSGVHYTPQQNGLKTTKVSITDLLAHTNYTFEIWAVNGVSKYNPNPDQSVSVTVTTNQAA
T3 sequence (P54764 436-547 limits assumed): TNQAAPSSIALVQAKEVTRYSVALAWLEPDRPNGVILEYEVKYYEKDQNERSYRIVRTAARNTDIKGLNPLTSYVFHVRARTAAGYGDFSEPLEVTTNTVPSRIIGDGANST
T4 sequence (Q03137 20-547): as the sequence (P54764 20-547) above, with P59A, N121S, V124G, R250Q, S251N, T270S, K378R, N406S counted along it

B1: mouse anti-EphA4 monoclonal antibody (antibody A) (antibody, mouse IgG1, kappa, V domains shown)
VH: QVQLKQSGPSLVQPSQSLSITCTVSGFSLTRYGVHWVRQSPGKGLEWLGVIWRGGSTDYNAAFMSRLSITKDNSKSQVFFKMNSLQADDTAIYYCAKESLFGVYYDYGYYSMDYWGQGTSVTVSS
VL: DIQMTQSPSSLSASLGERVSLTCRASQEISGYLSWLQQKPDGTIKRLIYAASTLDSGVPKRFSGSRSGSDYSLTISSLESEDFADYYCLQYASYPLTFGAGTKLELKR
notes: purified from hybridoma supernatant
As for B1, in assay [1], the Kd (usually the equilibrium constant for the complex coming apart) worked out at 1.19 nM. Moreover, the IC50 (usually the midpoint of a concentration-inhibition curve) in assay [2] was approximately 1.4 nM. The binding result in assay [3] and in assay [4] was “no binding (tested: 10 nM)” throughout.

B2: humanized anti-EphA4 monoclonal antibody (antibody B) (antibody, human IgG2, V domains shown)
VH: QVQLVESGGGVVQPGRSLRLSCAVSGFSLTRFGVHWVRQAPGKGLEWVAVIWRGGSTDYNAAFMSRLTISKDNSKNTVYLQMNSLRAEDTAVYYCAKESLFGVYYDYGYYSMDYWGQGTTVTVSS
VL: DIQMTQSPSSLSASVGDRVTITCRASQEISGYLSWLQQKPGKAPKRLIYAASTLDSGVPSRFSGSRSGTEYTLTISSLQPEDFATYYCLQYASYPLTFGGGTKVEIKR
notes: expressed in Expi293F cells; also called humanized antibody of antibody A; HK2-42 / L1-8
B2: the Kd in assay [1] turned out to be 1.34 nM. The same molecule had an IC50 in assay [2] of approximately 1.6 nM. For the same molecule, the binding result is on record as “binds” in assay [5], “no binding (tested: 10 nM)” in assay [3] and “no binding (tested: 10 nM)” in assay [4].
